Source: US6746859

Tests used:
[1] = target: T1, E. coli thioredoxin/human IL-11 fusion protein with enterokinase cleavage spacer, P20809
T1 chain: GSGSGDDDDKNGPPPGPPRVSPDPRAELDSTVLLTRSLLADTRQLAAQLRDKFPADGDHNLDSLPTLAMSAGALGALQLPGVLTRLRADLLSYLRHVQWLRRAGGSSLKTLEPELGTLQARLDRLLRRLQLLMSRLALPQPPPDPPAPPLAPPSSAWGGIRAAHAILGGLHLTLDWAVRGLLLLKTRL

[2] = target: T2, soybean trypsin inhibitor (STI, Sigma), P01070
T2 chain: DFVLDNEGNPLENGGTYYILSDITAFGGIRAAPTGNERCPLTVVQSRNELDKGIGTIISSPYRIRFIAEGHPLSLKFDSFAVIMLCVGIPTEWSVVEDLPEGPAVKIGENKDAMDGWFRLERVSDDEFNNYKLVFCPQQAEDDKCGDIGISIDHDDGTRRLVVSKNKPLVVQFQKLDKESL

[3] = target: bovine pancreatic trypsin inhibitor (BPTI, Sigma), P00974
[4] = target: T3, Gly-(Asp4)-Lys-βNA fluorogenic enterokinase substrate
T3 chain: GDDDDK

B1: CHO-produced recombinant bovine enterokinase catalytic domain (light chain) (protein)
chain: IVGGSDSREGAWPWVVALYFDDQQVCGASLVSRDWLVSAAHCVYGRNMEPSKWKAVLGLHMASNLTSPQIETRLIDQIVINPHYNKRRKNNDIAMMHLEMKVNYTDYIQPICLPEENQVFPPGRICSIAGWGALIYQGSTADVLQEADVPLLSNEKCQQQMPEYNITENMVCAGYEAGGVDSCQGDSGGPLMCQENNRWLLAGVTSFGYQCALPNRPGVYARVPRFTEWIQSFLH
Which EFFICIENCY OF CLEAVAGE (relative molar activities) (relative molar activity) (Trypsinogen) does the source give for B1 here?
Its EFFICIENCY OF CLEAVAGE (relative molar activities) (relative molar activity) is 1.

What about the EFFICIENCY OF CLEAVAGE (relative molar activities) (relative molar activity) [1] of the same protein?
The EFFICIENCY OF CLEAVAGE (relative molar activities) (relative molar activity) was 25.

And the “cleavage of fusion protein (SDS-PAGE)” value [1]?
Its value is “resulted in total and specific cleavage of this fusion protein into its two component domains (thioredoxin and IL-11)”.

What about the “cleaving activity toward the fluorogenic enterokinase substrate Gly-(Asp4)-Lys-βNA” value [2] of the same protein?
The value was “This activity was inhibited by the addition of either soybean trypsin inhibitor (STI,Sigma) or bovine pancreatic trypsin inhibitor (BPTI, Sigma)”.

And the “cleaving activity toward the fluorogenic enterokinase substrate Gly-(Asp4)-Lys-βNA” value [3]?
Its value is “This activity was inhibited by the addition of either soybean trypsin inhibitor (STI,Sigma) or bovine pancreatic trypsin inhibitor (BPTI, Sigma)”.

And the EFFICIENCY OF CLEAVAGE (relative molar activities) (relative molar activity) [4]?
The EFFICIENCY OF CLEAVAGE (relative molar activities) (relative molar activity) was 1.
